Columns and labels:
[1] = biological target: human GITR expressed on the cell surface (human) (UniProt Q9Y5U5); assay: flow cytometry, AF647 antibody at 200 nM; human primary CD8+ CD25+ T-cells, donor 7900C
[2] = biological target: cynomolgus monkey GITR expressed on the cell surface (Macaca fascicularis (cynomolgus monkey)); assay: flow cytometry, AF647 antibody at 200 nM; cynomolgus primary CD8+ CD69+ T-cells, donor 58946
[3] = biological target: human GITR expressed on the cell surface (human) (UniProt Q9Y5U5); assay: flow cytometry, AF647 antibody at 200 nM; human primary CD4+ CD25+ T-cells, donor 2700*
[4] = biological target: cynomolgus monkey GITR expressed on the cell surface (Macaca fascicularis (cynomolgus monkey)); assay: flow cytometry, AF647 antibody at 200 nM; cynomolgus primary CD4+ CD69+ T-cells, donor 58948
[5] = biological target: cynomolgus monkey GITR expressed on the cell surface (Macaca fascicularis (cynomolgus monkey)); assay: flow cytometry, AF647 antibody at 200 nM; cynomolgus primary non-activated CD8+ CD69- T-cells, donor 58947
[6] = biological target: human GITR expressed on the cell surface (human) (UniProt Q9Y5U5); assay: flow cytometry, AF647 antibody at 200 nM; human primary non-activated CD4+ CD25- T-cells, donor 26001
[7] = biological target: cynomolgus monkey GITR expressed on the cell surface (Macaca fascicularis (cynomolgus monkey)); assay: flow cytometry, AF647 antibody at 200 nM; cynomolgus primary CD4+ CD69+ T-cells, donor 58946
[8] = biological target: cynomolgus monkey GITR expressed on the cell surface (Macaca fascicularis (cynomolgus monkey)); assay: flow cytometry, AF647 antibody at 200 nM; cynomolgus primary non-activated CD4+ CD69- T-cells, donor 58945
[9] = biological target: human GITR expressed on the cell surface (human) (UniProt Q9Y5U5); assay: flow cytometry, AF647 antibody at 200 nM; human primary non-activated CD4+ CD25- T-cells, donor 8700C
[10] = biological target: cynomolgus monkey GITR expressed on the cell surface (Macaca fascicularis (cynomolgus monkey)); assay: flow cytometry, AF647 antibody at 200 nM; cynomolgus primary non-activated CD8+ CD69- T-cells, donor 58945
[11] = biological target: human GITR expressed on the cell surface (human) (UniProt Q9Y5U5); assay: flow cytometry, AF647 antibody at 200 nM; human primary non-activated CD8+ CD25- T-cells, donor 7900C
[12] = biological target: human GITR expressed on the cell surface (human) (UniProt Q9Y5U5); assay: flow cytometry, AF647 antibody at 200 nM; human primary CD4+ CD25+ T-cells, donor 26001
[13] = biological target: human GITR expressed on the cell surface (human) (UniProt Q9Y5U5); assay: flow cytometry, AF647 antibody at 200 nM; human primary non-activated CD4+ CD25- T-cells, donor 2700*
[14] = biological target: cynomolgus monkey GITR expressed on the cell surface (Macaca fascicularis (cynomolgus monkey)); assay: flow cytometry, AF647 antibody at 200 nM; cynomolgus primary non-activated CD4+ CD69- T-cells, donor 58947
[15] = biological target: hGITR.mmH (soluble monomeric recombinant human GITR ectodomain protein) (human); assay: blocking ELISA: 1.5 nM hGITR.mmH pre-incubated with antibody (up to 3 µM), binding to plate-coated hGITR-L
Chain of hGITR.mmH (soluble monomeric recombinant human GITR ectodomain protein) (human) (chain, as listed by the source limits assumed): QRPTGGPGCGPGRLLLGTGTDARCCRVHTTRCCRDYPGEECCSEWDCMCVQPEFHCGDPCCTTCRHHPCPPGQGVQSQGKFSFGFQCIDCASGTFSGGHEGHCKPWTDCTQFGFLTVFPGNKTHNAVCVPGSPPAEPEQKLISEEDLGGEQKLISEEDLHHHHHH

[16] = biological target: cynomolgus monkey GITR expressed on the cell surface (Macaca fascicularis (cynomolgus monkey)); assay: flow cytometry on Jurkat/hCD20/MfGITR cells; max MFI over secondary antibody alone
[17] = biological target: cynomolgus monkey GITR expressed on the cell surface (Macaca fascicularis (cynomolgus monkey)); assay: flow cytometry, AF647 antibody at 200 nM; cynomolgus primary non-activated CD8+ CD69- T-cells, donor 58946
[18] = biological target: cynomolgus monkey GITR expressed on the cell surface (Macaca fascicularis (cynomolgus monkey)); assay: flow cytometry, AF647 antibody at 200 nM; cynomolgus primary CD8+ CD69+ T-cells, donor 58948
[19] = biological target: cynomolgus monkey GITR expressed on the cell surface (Macaca fascicularis (cynomolgus monkey)); assay: flow cytometry, AF647 antibody at 200 nM; cynomolgus primary CD4+ CD69+ T-cells, donor 58947
[20] = biological target: human GITR expressed on the cell surface (human) (UniProt Q9Y5U5); assay: flow cytometry on Jurkat/hCD20/hGITR cells, 18 pM to 300 nM
[21] = biological target: human GITR expressed on the cell surface (human) (UniProt Q9Y5U5); assay: flow cytometry, AF647 antibody at 200 nM; human primary CD4+ CD25+ T-cells, donor 7900C
[22] = biological target: cynomolgus monkey GITR expressed on the cell surface (Macaca fascicularis (cynomolgus monkey)); assay: flow cytometry, AF647 antibody at 200 nM; cynomolgus primary CD4+ CD69+ T-cells, donor 58945
[23] = biological target: human GITR expressed on the cell surface (human) (UniProt Q9Y5U5); assay: flow cytometry, AF647 antibody at 200 nM; human primary non-activated CD8+ CD25- T-cells, donor 2700*
[24] = biological target: human GITR expressed on the cell surface (human) (UniProt Q9Y5U5); assay: flow cytometry on Jurkat/hCD20/hGITR cells; max MFI over secondary antibody alone
[25] = biological target: human GITR expressed on the cell surface (human) (UniProt Q9Y5U5); assay: flow cytometry, AF647 antibody at 200 nM; human primary non-activated CD8+ CD25- T-cells, donor 8700C
[26] = biological target: Jurkat/hCD20 cells (human CD20, no GITR; negative control cell line) (human) (UniProt P11836); assay: flow cytometry on Jurkat/hCD20 control cells, 18 pM to 300 nM
Chain of Jurkat/hCD20 cells (human CD20, no GITR; negative control cell line) (human) (P11836 whole entry): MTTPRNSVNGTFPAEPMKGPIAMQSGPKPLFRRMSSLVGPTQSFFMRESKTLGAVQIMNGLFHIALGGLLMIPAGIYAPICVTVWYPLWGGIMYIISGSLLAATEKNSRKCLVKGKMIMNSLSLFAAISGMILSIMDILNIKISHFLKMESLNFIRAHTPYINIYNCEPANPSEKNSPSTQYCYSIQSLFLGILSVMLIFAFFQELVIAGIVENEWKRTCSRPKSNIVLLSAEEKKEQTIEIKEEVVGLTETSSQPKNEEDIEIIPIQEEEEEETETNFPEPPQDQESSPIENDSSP

[27] = biological target: human GITR expressed on the cell surface (human) (UniProt Q9Y5U5); assay: flow cytometry, AF647 antibody at 200 nM; human primary non-activated CD8+ CD25- T-cells, donor 26001
[28] = biological target: Jurkat/hCD20 cells (human CD20, no GITR; negative control cell line) (human) (UniProt P11836); assay: flow cytometry on Jurkat/hCD20 control cells; max MFI over secondary antibody alone
[29] = biological target: human GITR expressed on the cell surface (human) (UniProt Q9Y5U5); assay: flow cytometry, AF647 antibody at 200 nM; human primary CD8+ CD25+ T-cells, donor 8700C
[30] = biological target: cynomolgus monkey GITR expressed on the cell surface (Macaca fascicularis (cynomolgus monkey)); assay: flow cytometry, AF647 antibody at 200 nM; cynomolgus primary non-activated CD8+ CD69- T-cells, donor 58948
[31] = biological target: human GITR expressed on the cell surface (human) (UniProt Q9Y5U5); assay: flow cytometry, AF647 antibody at 200 nM; human primary CD4+ CD25+ T-cells, donor 8700C
[32] = biological target: cynomolgus monkey GITR expressed on the cell surface (Macaca fascicularis (cynomolgus monkey)); assay: flow cytometry, AF647 antibody at 200 nM; cynomolgus primary CD8+ CD69+ T-cells, donor 58947
[33] = biological target: human GITR expressed on the cell surface (human) (UniProt Q9Y5U5); assay: flow cytometry, AF647 antibody at 200 nM; human primary CD8+ CD25+ T-cells, donor 2700*
[34] = biological target: human GITR expressed on the cell surface (human) (UniProt Q9Y5U5); assay: flow cytometry, AF647 antibody at 200 nM; human primary CD8+ CD25+ T-cells, donor 26001
[35] = biological target: cynomolgus monkey GITR expressed on the cell surface (Macaca fascicularis (cynomolgus monkey)); assay: flow cytometry on Jurkat/hCD20/MfGITR cells, 18 pM to 300 nM
[36] = biological target: human GITR expressed on the cell surface (human) (UniProt Q9Y5U5); assay: flow cytometry, AF647 antibody at 200 nM; human primary non-activated CD4+ CD25- T-cells, donor 7900C
[37] = biological target: cynomolgus monkey GITR expressed on the cell surface (Macaca fascicularis (cynomolgus monkey)); assay: flow cytometry, AF647 antibody at 200 nM; cynomolgus primary non-activated CD4+ CD69- T-cells, donor 58948
[38] = biological target: cynomolgus monkey GITR expressed on the cell surface (Macaca fascicularis (cynomolgus monkey)); assay: flow cytometry, AF647 antibody at 200 nM; cynomolgus primary CD8+ CD69+ T-cells, donor 58945
[39] = biological target: cynomolgus monkey GITR expressed on the cell surface (Macaca fascicularis (cynomolgus monkey)); assay: flow cytometry, AF647 antibody at 200 nM; cynomolgus primary non-activated CD4+ CD69- T-cells, donor 58946

Chain of human GITR expressed on the cell surface (human) (Q9Y5U5 26-241 limits assumed): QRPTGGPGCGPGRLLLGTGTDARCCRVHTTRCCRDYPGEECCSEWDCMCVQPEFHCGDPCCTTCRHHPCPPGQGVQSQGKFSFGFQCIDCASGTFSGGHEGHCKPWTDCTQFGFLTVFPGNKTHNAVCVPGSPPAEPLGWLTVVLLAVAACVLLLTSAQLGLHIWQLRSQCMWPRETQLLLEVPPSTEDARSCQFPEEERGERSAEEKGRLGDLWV

With IgG1 isotype control (antibody) the Max MFI [1] was 2090 MFI, the Max MFI [2] was 650 MFI and the Max MFI [3] was 2080 MFI. For the same substance, the Max MFI [4] was 1030 MFI, the Max MFI [5] was 601 MFI and the Max MFI [6] was 827 MFI. For the same substance, the Max MFI [7] was 803 MFI, the Max MFI [8] was 730 MFI and the Max MFI [9] was 1060 MFI. The Max MFI [10] was 565 MFI, the Max MFI [11] was 1140 MFI and the Max MFI [12] was 1230 MFI. For the same substance, the Max MFI [13] was 1410 MFI, the Max MFI [14] was 825 MFI and the % Max Inhibition [15] was -6%. For the same substance, the Fold Binding [16] was 1.1 fold, the Max MFI [17] was 455 MFI and the Max MFI [18] was 1130 MFI. It also gave a Max MFI [19] of 1230 MFI, a Max MFI [20] of 1090 MFI and a Max MFI [21] of 2280 MFI. The Max MFI [22] was 1110 MFI, the Max MFI [23] was 1130 MFI and the Fold Binding [24] was 1.09 fold. The Max MFI [25] was 1780 MFI, the Max MFI [26] was 1070 MFI and the Max MFI [27] was 644 MFI. It also gave a Fold Binding [28] of 1.15 fold, a Max MFI [29] of 1970 MFI and a Max MFI [30] of 512 MFI. For the same substance, the Max MFI [31] was 1920 MFI, the Max MFI [32] was 921 MFI and the Max MFI [33] was 1990 MFI. For the same substance, the Max MFI [34] was 1100 MFI, the Max MFI [35] was 1360 MFI and the Max MFI [36] was 1330 MFI. It also gave a Max MFI [37] of 817 MFI, a Max MFI [38] of 1090 MFI and a Max MFI [39] of 650 MFI.
